The data set can be described thus: total protein half-life in vivo (active degradation + dilution); higher = more stable protein.
Setting [1] is: E. coli NCM3722 delta-clpP delta-lon delta-hslV, growth: N-lim chemostat, doubling time 6 h.
Where [2] appears, read: E. coli NCM3722 delta-clpP, growth: N-lim chemostat, doubling time 6 h.
[3] abbreviates: E. coli NCM3722 delta-hslV, growth: N-lim chemostat, doubling time 6 h.
[4] abbreviates: E. coli NCM3722 delta-lon, growth: N-lim chemostat, doubling time 6 h.
Setting [5] is: E. coli NCM3722 delta-smpB, growth: N-lim chemostat, doubling time 6 h.
Setting [6] is: wild type E. coli NCM3722, growth: C-lim chemostat, doubling time 3 h.
[7] abbreviates: wild type E. coli NCM3722, growth: C-lim chemostat, doubling time 6 h.
[8] abbreviates: wild type E. coli NCM3722, growth: C-lim chemostat, doubling time 12 h.
The mark [9] stands for this setting: wild type E. coli NCM3722, growth: N-lim chemostat, doubling time 6 h.
Setting [10] is: wild type E. coli NCM3722, growth: N-lim chemostat, doubling time 12 h.
Where [11] appears, read: wild type E. coli NCM3722, growth: P-lim chemostat, doubling time 6 h.
[12] abbreviates: wild type E. coli NCM3722, growth: P-lim chemostat, doubling time 12 h.

± gives the standard deviation of the averaged measurements.

Consider “MSQTVHFQGNPVTVANSIPQAGSKAQTFTLVAKDLSDVTLGQFAGKRKVLNIFPSIDTGVCAASVRKFNQLATEIDNTVVLCISADLPFAQSRFCGAEGLNNVITLSTFRNAEFLQAYGVAIADGPLKGLAARAVVVIDENDNVIFSQLVDEITTEPDYEAALAVLKA [P0A862]”, for which the “total protein half-life in vivo” value is, setting by setting: under setting [1], 5.35 ± 0.21 h; under setting [2], 5.2 ± 0.74 h; under setting [3], 5.25 ± 0.47 h; under setting [4], 4.96 ± 0.085 h; under setting [5], 4.739 ± 0.047 h; under setting [6], 3.16 ± 0.047 h. Besides, the “total protein half-life in vivo” value under setting [7] turned out to be 6.01 ± 0.23 h; the “total protein half-life in vivo” value under setting [8] stood at 10.8 ± 1.2 h; the “total protein half-life in vivo” value under setting [9] is 5.01 ± 0.18 h; the “total protein half-life in vivo” value under setting [10] came to 9.45 ± 1.1 h; the “total protein half-life in vivo” value under setting [11] is 6.09 ± 0.53 h; the “total protein half-life in vivo” value under setting [12] was determined as 13.3 ± 0.69 h.
As to “MCGRFAQSQTREDYLALLAEDIERDIPYDPEPIGRYNVAPGTKVLLLSERDEHLHLDPVFWGYAPGWWDKPPLINARVETAATSRMFKPLWQHGRAICFADGWFEWKKEGDKKQPFFIYRADGQPIFMAAIGSTPFERGDEAEGFLIVTAAADQGLVDIHDRRPLVLSPEAAREWMRQEISGKEASEIAASGCVPANQFSWHPVSRAVGNVKNQGAELIQPV”, the “total protein half-life in vivo” value reads like this: under setting [1], 4.83 ± 0.49 h; under setting [2], 4.014 ± 0.026 h; under setting [3], 4.54 h; under setting [4], 4.55 ± 0.27 h; under setting [5], 3.52 ± 0.22 h; under setting [7], 5.39 ± 0.18 h. The “total protein half-life in vivo” value came out at 9.42 ± 0.51 h under setting [8], 3.45 ± 0.065 h under setting [9], 5.07 ± 0.74 h under setting [11] and 9.67 ± 1.4 h under setting [12].
In the case of “MSDMHSLLIAAILGVVEGLTEFLPVSSTGHMIIVGHLLGFEGDTAKTFEVVIQLGSILAVVVMFWRRLFGLIGIHFGRPLQHEGESKGRLTLIHILLGMIPAVVLGLLFHDTIKSLFNPINVMYALVVGGLLLIAAECLKPKEPRAPGLDDMTYRQAFMIGCFQCLALWPGFSRSGATISGGMLMGVSRYAASEFSFLLAVPMMMGATALDLYKSWGFLTSGDIPMFAVGFITAFVVALIAIKTFLQLIKRISFIPFAIYRFIVAAAVYVVFF”, the “total protein half-life in vivo” value under setting [2] is greater than 8 h; the “total protein half-life in vivo” value under setting [4] came out at 6.08 h; the “total protein half-life in vivo” value under setting [5] was 5.89 h; the “total protein half-life in vivo” value under setting [6] is greater than 4 h; the “total protein half-life in vivo” value under setting [8] is 11.9 h; the “total protein half-life in vivo” value under setting [11] turned out to be 6.83 ± 0.96 h.
As to “MITYHDAFAKANHYLDDADLPVVITLHGRFSQGWYFCFEAREFLETGDEAARLAGNAPFIIDKDSGEIHSLGTAKPLEEYLQDYEIKKATFGLP”, under setting [1], the “total protein half-life in vivo” value was found to be 4.62 ± 0.3 h.
For the sequence “MAKNTSCGVQLRIRGKVQGVGFRPFVWQLAQQLNLHGDVCNDGDGVEVRLREDPETFLVQLYQHCPPLARIDSVEREPFIWSQLPTEFTIRQSTGGTMNTQIVPDAATCPACLAEMNTPGERRYRYPFINCTHCGPRFTIIRAMPYDRPFTVMAAFPLCPACDKEYRDPLDRRFHAQPVACPECGPHLEWVSHGEHAEQEAALQAAIAQLKMGKIVAIKGIGGFHLACDARNSNAVATLRARKHRPAKPLAVMLPVADGLPDAARQLLTTPAAPIVLVDKKYVPELCDDIAPDLNEVGVMLPANPLQHLLLQELQCPLVMTSGNLSGKPPAISNEQALADLQGIADGFLIHNRDIVQRMDDSVVRESGEMLRRSRGYVPDALALPPGFKNVPPVLCLGADLKNTFCLVRGEQAVLSQHLGDLSDDGIQMQWREALRLMQNIYDFTPQYVVHDAHPGYVSSQWAREMNLPTQTVLHHHAHAAACLAEHQWPLDGGDVIALTLDGIGMGENGALWGGECLRVNYRECEHLGGLPAVALPGGDLAAKQPWRNLLAQCLRFVPEWQNYSETASVQQQNWSVLARAIERGINAPLASSCGRFFDAVAAALGCAPATLSYEGEAACALEALAASCHGVTHPVTMPRVDNQLDLATFWQQWLNWQAPVNQRAWAFHDALAQGFAALMREQATMRGITTLVFSGGVIHNRLLRARLAHYLADFTLLFPQSLPAGDGGLSLGQGVIAAARWLAGEVQNG”, under setting [8], the “total protein half-life in vivo” value amounted to 9.74 ± 2.4 h.
As for “MLMLFLTVAMVHIVALMSPGPDFFFVSQTAVSRSRKEAMMGVLGITCGVMVWAGIALLGLHLIIEKMAWLHTLIMVGGGLYLCWMGYQMLRGALKKEAVSAPAPQVELAKSGRSFLKGLLTNLANPKAIIYFGSVFSLFVGDNVGTTARWGIFALIIVETLAWFTVVASLFALPQMRRGYQRLAKWIDGFAGALFAGFGIHLIISR [P0AG38]”, the “total protein half-life in vivo” value runs as follows: under setting [2], 1.14 h; under setting [3], 0.979 h; under setting [4], 0.822 h; under setting [5], 1.13 ± 0.1 h; under setting [9], 1.13 h; under setting [12], 2.22 ± 0.65 h.
With “MGNSDRKPGLIKRLWKWWRTPSRLALGTLLLIGFVGGIVFWGGFNTGMEKANTEEFCISCHEMRNTVYQEYMDSVHYNNRSGVRATCPDCHVPHEFVPKMIRKLKASKELYGKIFGVIDTPQKFEAHRLTMAQNEWRRMKDNNSQECRNCHNFEYMDTTAQKSVAAKMHDQAVKDGQTCIDCHKGIAHKLPDMREVEPGF [P0ABL5]”, the “total protein half-life in vivo” value under setting [2] was found to be 4.79 h; the “total protein half-life in vivo” value under setting [5] stood at 5.22 ± 1.8 h; the “total protein half-life in vivo” value under setting [7] is 3.97 h; the “total protein half-life in vivo” value under setting [8] worked out at 9.62 h; the “total protein half-life in vivo” value under setting [12] came to 8.81 h.
With “MAQLYFYYSAMNAGKSTALLQSSYNYQERGMRTVVYTAEIDDRFGAGKVSSRIGLSSPAKLFNQNSSLFDEIRAEHEQQAIHCVLVDECQFLTRQQVYELSEVVDQLDIPVLCYGLRTDFRGELFIGSQYLLAWSDKLVELKTICFCGRKASMVLRLDQAGRPYNEGEQVVIGGNERYVSVCRKHYKEALQVDSLTAIQERHRHD”, the “total protein half-life in vivo” value turned out to be 4.73 ± 0.29 h under setting [1]; 4.06 ± 0.5 h under setting [2]; 3.97 ± 0.089 h under setting [3]; 5.17 ± 1.3 h under setting [4]; 3.82 ± 0.42 h under setting [5]; 2.47 ± 0.051 h under setting [6]. The “total protein half-life in vivo” value came out at 4.98 ± 0.062 h under setting [7]; 10.3 ± 0.56 h under setting [8]; 3.86 ± 0.31 h under setting [9]; 6.8 ± 0.12 h under setting [10]; 5.92 ± 0.58 h under setting [11]; 11.7 ± 0.69 h under setting [12].
